± gives the standard deviation.
Assay: protein stability index of a GFP-peptide fusion (GPS, HEK-293T) (PSI 1-6); higher = more stable
Details: c terminus: a fixed tail appended
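Also: 24-mer peptide tiles fused after GFP, lentivirally expressed, FACS-sorted into six equal bins by GFP/DsRed ratio, decoded by Illumina sequencing, PSI is the read-weighted mean bin number.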

## ALDEIKLLKCVRESDPSDPNKDMV [SRPK2]
treatment: DMSO
  protein stability index: 4.75 ± 0.23
treatment: MLN4924 1 uM, 8 h
  protein stability index: 4.54 ± 0.26

## YAPPPTPAPATQMPSTPGFVGYNP [SMARCE1]
treatment: DMSO
  protein stability index: 3.01 ± 0.36
treatment: MLN4924 1 uM, 8 h
  protein stability index: 3.72 ± 0.32

## VRERDRLGNEYPKLHYPELYVLKG [CDC25A]
treatment: DMSO
  protein stability index: 2.62 ± 0.21
treatment: MLN4924 1 uM, 8 h
  protein stability index: 2.75 ± 0.12

## DSQDLVASFRVTTGTSNTTAIKSI [RBBP5]
treatment: DMSO
  protein stability index: 3.46 ± 0.24
treatment: MLN4924 1 uM, 8 h
  protein stability index: 3.59 ± 0.26

## ELCHHVAEVWVSGTIFIRNVLLFK [RETREG3]
treatment: DMSO
  protein stability index: 3.09 ± 0.67
treatment: MLN4924 1 uM, 8 h
  protein stability index: 2.81 ± 0.61

## LDPVLQAPGTGPAQTELLCCLVKM [FANCE]
treatment: DMSO
  protein stability index: 2.47 ± 0.32
treatment: MLN4924 1 uM, 8 h
  protein stability index: 2.32 ± 0.49

## SKAHLEKVRSYVKRALAEGAQIWC [ALDH8A1]
treatment: DMSO
  protein stability index: 3.23 ± 0.73
treatment: MLN4924 1 uM, 8 h
  protein stability index: 3.19 ± 0.56

## STELQASQILQNKKHKNSQLDKNS [FAM98B]
treatment: DMSO
  protein stability index: 4.91 ± 0.38
treatment: MLN4924 1 uM, 8 h
  protein stability index: 5.06 ± 0.45

## LFYDDYYEDGEVEEEADSCFGDDE [CDC34]
treatment: DMSO
  protein stability index: 4.79 ± 0.17
treatment: MLN4924 1 uM, 8 h
  protein stability index: 4.78 ± 0.3

## RSEQSVKLRRQVIQVVLNGMESYQ [ZER1]
treatment: DMSO
  protein stability index: 2.41 ± 0.13
treatment: MLN4924 1 uM, 8 h
  protein stability index: 2.32 ± 0.18

## ISLWPREPPPKSGPSLVPGKTPTV [CD207]
treatment: DMSO
  protein stability index: 3.06 ± 0.18
treatment: MLN4924 1 uM, 8 h
  protein stability index: 3.43 ± 0.084

## PWERAMGVDPQQKMELGIDLLAYG [MYOZ1]
treatment: DMSO
  protein stability index: 2.97 ± 0.28
treatment: MLN4924 1 uM, 8 h
  protein stability index: 2.94 ± 0.13

## QPRIHLVRAAQLCSQHWGGMASFR [TBX6]
treatment: DMSO
  protein stability index: 2.38 ± 0.56
treatment: MLN4924 1 uM, 8 h
  protein stability index: 2.24 ± 0.11

## HQEAEMAQNAVRLHYGLPVVVKLL [CTNNB1]
treatment: DMSO
  protein stability index: 2.58 ± 0.18
treatment: MLN4924 1 uM, 8 h
  protein stability index: 2.62 ± 0.21

## DFLIHPPERSDLTLYLIVALATVS [PCDHGC5]
treatment: DMSO
  protein stability index: 2.75 ± 0.41
treatment: MLN4924 1 uM, 8 h
  protein stability index: 2.44 ± 0.25

## WKVRAEKEACQREKELPAAVHPFH [ZBED2]
treatment: DMSO
  protein stability index: 3.9 ± 0.18
treatment: MLN4924 1 uM, 8 h
  protein stability index: 3.93 ± 0.15

## ACDIRVAASSAKMGLVETKLAIIP [AUH]
treatment: DMSO
  protein stability index: 2.95 ± 0.22
treatment: MLN4924 1 uM, 8 h
  protein stability index: 3.03 ± 0.32

## QFSVVSVVAYLALAALSATISFRI [RTN1]
treatment: DMSO
  protein stability index: 2.99 ± 0.57
treatment: MLN4924 1 uM, 8 h
  protein stability index: 3.2 ± 0.55

## DMCMKVPDDPEHLAARRQWRDECL [CRYL1]
treatment: DMSO
  protein stability index: 4.47 ± 0.22
treatment: MLN4924 1 uM, 8 h
  protein stability index: 4.56 ± 0.2

## KKRFTRRSHLIGHQRTHSEEETYK [ZNF449]
treatment: DMSO
  protein stability index: 4.12 ± 0.42
treatment: MLN4924 1 uM, 8 h
  protein stability index: 4.23 ± 0.46

## TTTVTAVTAEVDLFGDAFAASPGE [SNAP91]
treatment: DMSO
  protein stability index: 4.54 ± 0.13
treatment: MLN4924 1 uM, 8 h
  protein stability index: 4.59 ± 0.28

## NVEDASHEEVVEKVKKSGSRVMFL [PDZK1]
treatment: DMSO
  protein stability index: 4.45 ± 0.2

## SNTRDRYGRSWESYSSCGDFHYCD [RBMY1A1]
treatment: DMSO
  protein stability index: 2.73 ± 0.27
treatment: MLN4924 1 uM, 8 h
  protein stability index: 2.91 ± 0.54

## RKPKVIECSYTSADGQRHHSKLLV [DHCR7]
treatment: DMSO
  protein stability index: 2.72 ± 0.13
treatment: MLN4924 1 uM, 8 h
  protein stability index: 2.93 ± 0.28

## LCREEPVVQGPDGRLELKPLLLRL [FANCE]
treatment: DMSO
  protein stability index: 2.19 ± 0.25
treatment: MLN4924 1 uM, 8 h
  protein stability index: 2.48 ± 0.15

## MRAAALCDKHSKLFEEPEDPSNRS [PPP2R2C]
treatment: DMSO
  protein stability index: 5.14 ± 0.12
treatment: MLN4924 1 uM, 8 h
  protein stability index: 5.17 ± 0.12

## EEEVVEGEKEVEALKKSADWVSDW [BNIP3L]
treatment: DMSO
  protein stability index: 5.08 ± 0.25
treatment: MLN4924 1 uM, 8 h
  protein stability index: 5.36 ± 0.34

## PQGSRSPYIPPHAALCLEVTLKTA [FKBP8]
treatment: DMSO
  protein stability index: 2.26 ± 0.33
treatment: MLN4924 1 uM, 8 h
  protein stability index: 2.1 ± 0.22

## AMYISQEEWGHQDPSKRALSRDTV [ZNF263]
treatment: DMSO
  protein stability index: 3.81 ± 0.12
treatment: MLN4924 1 uM, 8 h
  protein stability index: 4.06 ± 0.14

## SLLNFLPEGVNKLKISPVTLKEAY [TENT5C]
treatment: DMSO
  protein stability index: 2.27 ± 0.23
treatment: MLN4924 1 uM, 8 h
  protein stability index: 2.41 ± 0.12

## HSVLQIRYSGKILKNNETLVQHGV [IQUB]
treatment: DMSO
  protein stability index: 2.09 ± 0.035
treatment: MLN4924 1 uM, 8 h
  protein stability index: 2.31 ± 0.28

## GQRFYSRVLSPLHRGPSGHTEASA
treatment: DMSO
  protein stability index: 3.74 ± 0.045
treatment: MLN4924 1 uM, 8 h
  protein stability index: 3.79 ± 0.29

## KFSPFGQWWASVGMDDFLGVYSMP [TLE6]
treatment: DMSO
  protein stability index: 2.62 ± 0.67
treatment: MLN4924 1 uM, 8 h
  protein stability index: 2.35 ± 0.4

## DSSHDSARASEGSDSGSDKSLEGG [SMG5]
treatment: DMSO
  protein stability index: 5.54 ± 0.31
treatment: MLN4924 1 uM, 8 h
  protein stability index: 5.51 ± 0.31

## CHSHTVVQDYSYFFFLRMDENYNL [CCDC3]
treatment: DMSO
  protein stability index: 2.49 ± 0.68
treatment: MLN4924 1 uM, 8 h
  protein stability index: 2.4 ± 0.63

## LTFLTKQEILLAHRRFCELLPQEQ [CIB1]
treatment: DMSO
  protein stability index: 2.4 ± 0.44
treatment: MLN4924 1 uM, 8 h
  protein stability index: 2.55 ± 0.19

## TKRSSRNPVFQDSWDTESSGSDSG [FAM104A]
treatment: DMSO
  protein stability index: 5.3 ± 0.28
treatment: MLN4924 1 uM, 8 h
  protein stability index: 5.22 ± 0.055

## YLPTRGGTTMASGGRFRCPSCRHE [TRIM55]
treatment: DMSO
  protein stability index: 2.69 ± 0.57
treatment: MLN4924 1 uM, 8 h
  protein stability index: 3.42 ± 0.43

## NSRVDDTFWASWRAFAQIGPARSG [MIR22HG]
treatment: DMSO
  protein stability index: 2.6 ± 0.32
treatment: MLN4924 1 uM, 8 h
  protein stability index: 2.79 ± 0.35

## DIVLMAQALEKIFLQKVAQMPQEE [BRD3]
treatment: DMSO
  protein stability index: 2.36 ± 1.6
treatment: MLN4924 1 uM, 8 h
  protein stability index: 3 ± 1

## GQTYVDAGYEVDKIAQNLDFVNLM [CHIT1]
treatment: DMSO
  protein stability index: 3.01 ± 0.27
treatment: MLN4924 1 uM, 8 h
  protein stability index: 3.23 ± 0.45

## FRRFAVHGDARATGREMHGKNWSK [TPPP]
treatment: DMSO
  protein stability index: 3.62 ± 0.12
treatment: MLN4924 1 uM, 8 h
  protein stability index: 3.65 ± 0.33

## TSKNSSTQDPSQPNSTKNQSLPKA [LCOR]
treatment: DMSO
  protein stability index: 5.31 ± 0.16
treatment: MLN4924 1 uM, 8 h
  protein stability index: 5.44 ± 0.12

## VLRREISELRTKVQEQQKQLQDQD [FBXO28]
treatment: DMSO
  protein stability index: 4.73 ± 0.17
treatment: MLN4924 1 uM, 8 h
  protein stability index: 4.66 ± 0.23

## EKTQKNQCWKSLFIDTYSDVGRYI [FBXO3]
treatment: DMSO
  protein stability index: 2.53 ± 0.73
treatment: MLN4924 1 uM, 8 h
  protein stability index: 2.15 ± 0.33
